Measured values published in publication doi:10.1101/2022.09.26.509586.

Biological target: piggyBac transposase residues 1-558 (PB1-558) (cabbage looper moth)
Assay: AUC

stoichiometry N: 2
Substance: piggyBac transposase residues 1-558 (PB1-558) (domain or fragment)
